The text below walks through data of patent US20050276811A1.

Assay [1] addresses IgM^CM-22. Description: cell-based or functional assay.
Assay [2] deals with IgM^CM-22. Description: SPR (BiaCore), IgM^CM-22 amine-coupled to CM5 chip, N2 injected at 10.5-120 µM, steady-state fit with 1:1 Langmuir isotherm.
The target of assay [3] is IgM^CM-22. Description: competition ELISA: synthetic P8 peptide titrated against phage P8 binding to IgM^CM-22-coated plate. A general note: In an ELISA, binding on a coated surface is turned into a signal by an enzyme label.

B1: self-peptide N2 (peptide)
peptide: LMKNMDPLNDNV
As to B1, the mean pathology score, intestinal RI in RAG-1-/- mice given IgM^CM-22 mixed with N2 versus IgM^CM-22 and saline (pathology score) in the assay with IgM^CM-22 [1] was determined as 13. Further, the Kd (commonly the equilibrium constant for the complex coming apart) in the assay with IgM^CM-22 [2] worked out at 123 µM.

B2: synthetic peptide P8 (peptide)
peptide: NGNNVNGNRNNN
In the assay with IgM^CM-22 [1], B2 came in with a concentration of P8 sufficient to block IgM^CM-22 of 10 µM and a mean pathology score, intestinal RI in RAG-1-/- mice given IgM^CM-22 mixed with P8 versus IgM^CM-22 alone (pathology score) of 6. Further, the IC50 (usually the concentration that gives 50% inhibition) in the assay with IgM^CM-22 [3] was determined as 10 µM.
